# Measured values published in PMC4066776, “Molecular determinants of the DprA−RecA interaction for nucleation on ssDNA” (Nucleic Acids Research, 2014).
# Experiments:
# [1] = target: the molecule itself; experiment: SAXS; scattering curve of 5KA DprA in solution superimposed on that of WT DprA (the latter taken from ref. 18)
# [2] = target: T1, S. pneumoniae RecA lacking the first 28 residues (Δ28), purified (S. pneumoniae, UniProt P0A451 29-388); experiment: pull-down; pull-down on magnetic beads using purified proteins; which partner was on the beads is told only in the supplementary methods; conditions: both partners purified
# T1 construct: RecA, Streptococcus pneumoniae, locus Sp1940, the 28 first residues removed; also called Δ28RecA; source: E. coli, purified (Ni-NTA column, gel filtration)
binder,measurement,setting,value
"S. pneumoniae DprA K119A/K144A/K175A/K202A/K225A (5KA), purified (natural protein, DprA, Streptococcus pneumoniae, locus Sp1266, five lysines K119/K144/K175/K202/K225 mutated to alanines; also called 5KADprA; 5KA mutant; source: E. coli, purified (Ni-NTA column, gel filtration)) MKITNYEIYKLKKSGLTNQQILKVLEYGENVDQELLLGDIADISGCRNPAVFMERYFQIDDAHLSKEFQKFPSFSILDDCYPWDLSEIYDAPVLLFYKGNLDLLKFPKVAVVGSRACSAQGAKSVEKVIQGLENELVIVSGLAAGIDTAAHMAALQNGGKTIAVIGTGLDVFYPAANKRLQDYIGNDHLVLSEYGPGEQPLAFHFPARNRIIAGLCRGVIVAEAAMRSGSLITCERAMEEGRDVFAIPGSILDGLSDGCHHLIQEGAKLVTSGQDVLAEFEF",stoichiometry N,[1],2
same,binding result,[2],binds
